Results from patent publication US20140186354A1 (published 2014).

What was measured:
HER4 ECD-HRG complex = biological target: T1, HER4 ECD-HRG complex (human, UniProt Q15303 26-651); assay: SPR Biacore T100
T1 construct: HER4 ECD pre-incubated with a 5-fold molar excess of Heregulin; also called Her-4 ECD/Heregulin complex
T1 sequence 1: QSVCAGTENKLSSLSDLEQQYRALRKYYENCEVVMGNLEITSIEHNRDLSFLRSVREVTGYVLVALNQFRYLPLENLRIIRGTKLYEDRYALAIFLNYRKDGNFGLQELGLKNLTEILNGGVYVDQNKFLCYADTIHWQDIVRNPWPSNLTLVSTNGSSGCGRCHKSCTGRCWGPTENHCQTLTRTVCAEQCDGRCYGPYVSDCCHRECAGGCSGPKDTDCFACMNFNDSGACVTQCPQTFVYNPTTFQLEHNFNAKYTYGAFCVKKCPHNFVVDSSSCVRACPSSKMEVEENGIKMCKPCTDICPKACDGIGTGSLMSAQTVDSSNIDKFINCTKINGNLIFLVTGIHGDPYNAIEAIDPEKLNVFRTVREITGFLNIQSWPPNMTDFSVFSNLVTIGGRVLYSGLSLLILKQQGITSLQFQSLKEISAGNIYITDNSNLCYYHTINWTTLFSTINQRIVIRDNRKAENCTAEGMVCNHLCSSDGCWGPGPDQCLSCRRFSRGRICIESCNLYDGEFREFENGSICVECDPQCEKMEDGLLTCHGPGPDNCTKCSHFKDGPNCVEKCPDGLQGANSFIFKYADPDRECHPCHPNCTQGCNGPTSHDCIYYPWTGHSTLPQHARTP
T1 sequence 2: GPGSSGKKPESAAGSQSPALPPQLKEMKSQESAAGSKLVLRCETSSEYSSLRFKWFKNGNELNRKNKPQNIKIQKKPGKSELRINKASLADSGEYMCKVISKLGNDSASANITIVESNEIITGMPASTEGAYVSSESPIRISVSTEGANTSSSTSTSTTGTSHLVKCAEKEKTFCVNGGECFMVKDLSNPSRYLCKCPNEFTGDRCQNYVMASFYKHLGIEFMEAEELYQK

HER3 ECD-HRG complex = biological target: T2, HER3 ECD-HRG complex (human, UniProt P21860 20-643); assay: SPR Biacore T100
T2 construct: HER3 ECD pre-incubated with a 5-fold molar excess of Heregulin (open conformation); also called Her-3 ECD/Heregulin complex

[1] = biological target: T3, human recombinant HER4 ECD (human, UniProt Q15303 26-651); assay: complex formed in solution before SPR
T3 sequence: T1 sequence 1

[2] = biological target: T4, human recombinant HER3 ECD (human, UniProt P21860 20-643); assay: complex formed in solution before SPR
T4 construct: 68 kDa; without ligand said to be in the closed conformation; also called human-Her3-ECD
T4 sequence (P21860 20-643): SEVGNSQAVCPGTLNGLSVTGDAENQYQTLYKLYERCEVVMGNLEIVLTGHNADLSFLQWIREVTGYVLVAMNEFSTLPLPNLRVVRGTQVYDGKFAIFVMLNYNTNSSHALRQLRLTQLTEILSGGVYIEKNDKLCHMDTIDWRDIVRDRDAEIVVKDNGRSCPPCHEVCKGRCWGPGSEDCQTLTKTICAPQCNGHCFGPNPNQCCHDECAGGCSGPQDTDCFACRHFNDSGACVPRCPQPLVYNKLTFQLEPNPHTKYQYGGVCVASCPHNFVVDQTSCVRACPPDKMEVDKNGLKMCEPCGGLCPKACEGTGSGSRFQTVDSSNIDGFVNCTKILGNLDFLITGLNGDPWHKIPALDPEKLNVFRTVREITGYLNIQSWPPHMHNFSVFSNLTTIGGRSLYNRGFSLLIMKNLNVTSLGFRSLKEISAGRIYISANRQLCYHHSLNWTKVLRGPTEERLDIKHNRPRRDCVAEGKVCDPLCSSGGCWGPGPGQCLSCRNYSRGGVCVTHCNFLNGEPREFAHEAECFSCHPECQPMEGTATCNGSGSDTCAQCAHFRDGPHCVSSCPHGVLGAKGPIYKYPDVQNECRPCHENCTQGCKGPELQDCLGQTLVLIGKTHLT

T2 sequence (P21860 20-643 limits assumed, one chain of several): as the sequence (P21860 20-643) above

B1: anti-HER3/HER4 antibody M-05-74 (antibody, V domains shown)
VH: QVQLQQSGAELAKPGASVKMSCKTSGYTLTDYWIHWVKQRPGQGLEWIGYINPYTGYTESNQKFKDKATLTADKSSNTAYIQLSSLTSEDSAVYYCARPYYYGDYWGQGTTLTVSS
VL: QIVLTQSPAIMSASPGERVTITCSASSSVSYMHWFQQKPGTSPKLLIYSTSNLASGVPARFSGSGSGTSYSLTISRMEAEDAATYYCQQRSSYPFTFGSGTKLEIK
notes: Murine monoclonal antibody from hybridoma (supernatant or purified full length); also called M-074; M-5-74
HER4 ECD-HRG complex
  ratio Ka(+Heregulin)/Ka(-Heregulin), against HER4-ECD: 23.9
  ratio MR(+Heregulin)/MR(-Heregulin), against HER4-ECD: 6
HER3 ECD-HRG complex
  ratio Ka(+Heregulin)/Ka(-Heregulin), against HER3-ECD: 4.85
  ratio MR(+Heregulin)/MR(-Heregulin), against HER3-ECD: 3

B2: Recombinant Human Heregulin fragment (HRG) (ligand)
chain: T1 sequence 2
notes: also called Heregulin beta (HRG)
[1]
  binding result: binds
[2]
  binding result: binds
